These results are taken from US20070224189A1 (published 2007).

For experiment [1], the target named is human F158 FcγRIIIa as used in SPR (human, UniProt P08637 17-208). The experiment can be described thus: SPR. In general terms: SPR reads the build-up and loss of mass on a sensor chip optically.
A further experiment addresses His-tagged V158 FcγRIIIa (human, UniProt P08637 17-208). The experiment can be described thus: SPR, receptor on chip.
For experiment [2], the target named is extracellular region of human V158 FcγRIIIa fused with glutathione S-Transferase (GST) (human, UniProt P08637 17-208). The experiment can be described thus: AlphaScreen competition. In general terms: In Alpha technology, singlet oxygen from a donor bead excites a nearby acceptor bead.
Chain of extracellular region of human V158 FcγRIIIa fused with glutathione S-Transferase (GST) (P08637 17-208 F176V): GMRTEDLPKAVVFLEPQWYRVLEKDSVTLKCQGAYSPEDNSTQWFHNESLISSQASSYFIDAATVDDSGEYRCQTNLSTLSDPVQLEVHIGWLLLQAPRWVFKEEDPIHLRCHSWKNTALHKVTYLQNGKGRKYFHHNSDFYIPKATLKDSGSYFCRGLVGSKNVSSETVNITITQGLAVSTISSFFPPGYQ

Positions count from the first letter of the chain named. Names may count otherwise.

Chain of His-tagged V158 FcγRIIIa (P08637 17-208 F176V): as above
Chain of human F158 FcγRIIIa as used in SPR (P08637 17-208): as the sequence (P08637 17-208 F176V) above, with V160F counted along it

B1: S298A/E333A/K334A alemtuzumab (antibody)
heavy: not shown
In the case of B1, the figures for the Kd (in experiment [1]; with His-tagged V158 FcγRIIIa) were 156 nM and 39 nM, respectively.

B2: F241E/F243Y/V262T/V264R/I332E alemtuzumab (antibody)
heavy: DKTHTCPPCPAPELLGGPSVELYPPKPKDTLMISRTPEVTCTVRDVSHEDPEVKFNWYVDGVEVHNAKTKPREEQYNSTYRVVSVLTVLHQDWLNGKEYKCKVSNKALPAPEEKTISKAKGQPREPQVYTLPPSRDELTKNQVSLTCLVKGFYPSDIAVEWESNGQPENNYKTTPPVLDSDGSFFLYSKLTVDKSRWQQGNVFSCSVMHEALHNHYTQKSLSLSPGK
B2: the “FcγRIIIa Fold” value in experiment [2] is 0.1 fold vs WT.

B3: F241L/F243L/V262I/V264I alemtuzumab (antibody)
heavy: B2 heavy with E21L, Y23L, T42I, R44I, E112I
Turning to B3, the “FcγRIIIa Fold” value in experiment [2] was 0.09 fold vs WT.

B4: S239D/A330Y/I332E/V264T trastuzumab (antibody)
heavy: B2 heavy with S19D, E21F, Y23F, T42V, R44T, A110Y
For B4, the “FcγRIIIa Fold” value in experiment [2] worked out at 17.7 fold vs WT.

B5: S239D/A330Y/I332E/L234I trastuzumab (antibody)
heavy: B2 heavy with L14I, S19D, E21F, Y23F, T42V, R44V, A110Y
With B5, in experiment [2], the “FcγRIIIa Fold” value stood at 22.4 fold vs WT.

B6: F241W/F243W/V262A/V264A alemtuzumab (antibody)
heavy: B2 heavy with E21W, Y23W, T42A, R44A, E112I
On to B6, for which, in experiment [2], the “FcγRIIIa Fold” value is 0.04 fold vs WT.

B7: F241Y/F243Y/V262T/V264T alemtuzumab (antibody)
heavy: B2 heavy with E21Y, R44T, E112I
B7: the “FcγRIIIa Fold” value in experiment [2] stood at 0.05 fold vs WT.

B8: S239D/A330Y/I332E/L235D trastuzumab (antibody)
heavy: B2 heavy with L15D, S19D, E21F, Y23F, T42V, R44V, A110Y
As for B8, in experiment [2], the “FcγRIIIa Fold” value was found to be 7.04 fold vs WT.

B9: F243L/V262I/V264W alemtuzumab (antibody)
heavy: B2 heavy with E21F, Y23L, T42I, R44W, E112I
In the case of B9, the “FcγRIIIa Fold” value in experiment [2] was 0.02 fold vs WT.

B10: P230A/E233D/I332E trastuzumab (antibody)
heavy: B2 heavy with P10A, E13D, E21F, Y23F, T42V, R44V
For B10, the “FcγRIIIa Fold” value in experiment [2] worked out at 1.87 fold vs WT.

B11: S239D/D265Y/N297D/I332E alemtuzumab (antibody)
heavy: B2 heavy with S19D, E21F, Y23F, T42V, R44V, D45Y, N77D
As to B11, the “FcγRIIIa Fold” value in experiment [2] was determined as 0.02 fold vs WT.

B12: S239D/A330Y/I332E/K326E trastuzumab (antibody)
heavy: B2 heavy with S19D, E21F, Y23F, T42V, R44V, K106E, A110Y
On to B12, for which the “FcγRIIIa Fold” value in experiment [2] came out at 64.1 fold vs WT.

B13: S239D/I332E/A330I trastuzumab (antibody)
heavy: B2 heavy with S19D, E21F, Y23F, T42V, R44V, A110I
As to B13, the “FcγRIIIa Fold” value in experiment [2] is 59.1 fold vs WT.

B14: S239D/A330Y/I332E/V240I trastuzumab (antibody)
heavy: B2 heavy with S19D, V20I, E21F, Y23F, T42V, R44V, A110Y
Take B14: the “FcγRIIIa Fold” value in experiment [2] was determined as 28 fold vs WT.

By Kd is commonly meant a measure of binding affinity in units of concentration. A higher Kd goes with a looser complex.
